Source: doi:10.1101/327866 (bioRxiv, 2018)
Changes are numbered by the printed parent chain.

B1: PA13P1H08 variant: heavy chain reverted to the inferred naive rearrangement, native light chain (antibody, V domains shown)
VH: QVQLVESGGGVVQPGRSLRLSCAASGFTFSSYGMHWVRQAPGKGLEWVAVISYDGSNKYYADSVKGRFTISRDNSKNTLYLQMNSLRAEDTAVYYCAKVLDYSNYYYYYGMDVWGQGTTVTVSS
VL: EIVLTQSPGTLSLSPGGRGTLSCRTSQTINNAHLAWYQHKPGQAPRLLIYGSSERATGVPDRFSGSGSGSDFTLTISSLEAEDFAVYYCQHYGRSPPYTFGPGTKLDIK
B2: PA13P1H08 variant: only the heavy chain CDR2 reverted to the inferred naive rearrangement, native light chain (antibody, V domains shown)
VH: QVQLVNSGGGVVQPGRSLRLSCVASGFTFSTFGIHWVRQAPGKGLEWVAVISYDGSNKESADSVKGRFTPSRDNSKNTVYLQMNNLRVEDTAVYYCAKVLDYSRYSYYYGMDVWGQGTTVIVSS
VL: B1 VL
B3: PA13P1H08 variant: only the heavy chain framework regions reverted to the inferred naive rearrangement, native light chain (antibody, V domains shown)
VH: B1 VH with S31T, Y32F, Y53N, S56E, N57K, K58S, N104R, Y106S
VL: B1 VL
B4: PA13P1H08 variant: only the heavy chain CDR1 reverted to the inferred naive rearrangement, native light chain (antibody, V domains shown)
VH: B2 VH with T31S, F32Y, Y53N, S56E, N57K, K58S
VL: B1 VL
B5: PA13P1H08 variant: only the heavy chain CDR3 reverted to the inferred naive rearrangement, native light chain (antibody, V domains shown)
VH: B2 VH with Y53N, S56E, N57K, K58S, R104N, S106Y
VL: B1 VL

Target: Ara h 3, purified natural peanut allergen (Arachis hypogaea (peanut), cultivar not …, UniProt O82580)
Assay: BLI

binding result | Binder
binds | B1
binds | B2
binds | B3
binds | B4
binds | B5

Target: Ara h 2, purified natural peanut allergen (Arachis hypogaea (peanut), cultivar not …, UniProt Q6PSU2)
Assay: BLI

binding result | Binder
binds | B1
binds | B2
binds | B3
binds | B4
binds | B5
